One assay has as its target T1, GIP receptor.
T1 sequence (P48546 whole entry, species assumed, looked up): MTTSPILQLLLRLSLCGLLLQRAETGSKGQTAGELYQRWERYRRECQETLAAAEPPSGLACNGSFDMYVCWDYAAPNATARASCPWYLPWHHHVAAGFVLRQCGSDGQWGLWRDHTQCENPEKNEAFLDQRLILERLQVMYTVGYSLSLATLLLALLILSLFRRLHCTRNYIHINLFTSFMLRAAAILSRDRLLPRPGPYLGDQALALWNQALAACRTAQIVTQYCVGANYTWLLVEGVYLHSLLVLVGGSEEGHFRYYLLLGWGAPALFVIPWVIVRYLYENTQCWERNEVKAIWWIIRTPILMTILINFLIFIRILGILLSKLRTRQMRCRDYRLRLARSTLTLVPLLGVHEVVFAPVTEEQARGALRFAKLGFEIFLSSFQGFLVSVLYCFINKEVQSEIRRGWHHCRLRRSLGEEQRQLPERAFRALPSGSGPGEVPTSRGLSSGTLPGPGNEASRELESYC
Kind of assay: cell-based or functional assay.

In a further assay the target is GLP-1 receptor. Kind of assay: cell-based or functional assay.

B1: BG128 (peptide)
peptide: YXEGTFTSDYSIXLDKIAQKAFVQWLIAGGPSSGAPPPSK
modifications: Aib (2-aminoisobutyric acid) at positions 2 and 13; Lys at position 40 carries on its side chain AEEEA-AEEEA-gamma-Glu-icosanedioic acid (Fmoc-AEEEA-OH, Fmoc-AEEEA-OH, Fmoc-Glu-OtBu and 20-(tert-butoxy)-20-oxoicosanoic acid condensed in turn); C-terminal amide (made on Rink MBHA Amide resin)
On to B1, for which the “cAMP experimental result of GIP receptor, EC50” value in the assay with GIP receptor came out at 278 pM. The “cAMP experimental result of GLP-1 receptor, EC50” value in the assay with GLP-1 receptor was 110 pM.

B2: BGM125 (peptide)
peptide: YXEGTFTSDYSIXLDKIAQKAFVQWLIAGGPSSGAPPPS
modifications: Aib at positions 2 and 13; by the synthesis order the Lys(Alloc) at position 16 carries AEEEA-AEEEA-gamma-Glu-icosanedioic acid on its side chain; C-terminal amide (Rink MBHA Amide resin)
Take B2: the “cAMP experimental result of GIP receptor, EC50” value with GIP receptor turned out to be 684 pM. In addition, in the assay with GLP-1 receptor, the “cAMP experimental result of GLP-1 receptor, EC50” value was found to be 69.2 pM.

(Values after patent publication US12215133 (BRIGHTGENE BIO MEDICAL TECHNOLOGY, dated 2025).)
